Data: patent US20200000897A1 (published 2020)

target: T1, HLA-A*03:01 (human); experiment: UV-ligand exchange, anti-b2m ELISA; peptide exchange yield grade (>10% +, >20% ++, >50% +++, >75% ++++)
T1 construct: MHC class I monomer first loaded with a UV-sensitive peptide that is cleaved by UV irradiation and exchanged for the test peptide; captured on streptavidin plates; also called peptide-receptive MHC molecules
Procedure, shortened: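 HLA-A*03:01 complexes were formed by UV-induced exchange of a photocleavable peptide for the test peptide. Exchange yield was measured by ELISA: streptavidin capture of 100-fold diluted monomers, HRP-anti-β2m detection, TMB read at 450 nm, quantified against HLA-A*02:01 monomer standards (15–500 ng/ml) and graded by % yield.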

| Binder | peptide exchange yield [%] |
| --- | --- |
| KRIPFRPLAK | 20 to 50 |
| KLADSVMAGK | > 75 |
| PLPRPGAVLK | 20 to 50 |
| GMTLLCEALK | 20 to 50 |
| IMPTFDLTK | 10 to 20 |
| CLANYTVNK | > 75 |
| IMKRQVKCITK | 10 to 20 |
| FLGLAFHPK | 20 to 50 |
| GTHVWVGLYK | > 75 |
| HMDEFKRTQK | 50 to 75 |
| HLFLPFSYK | > 75 |
| KARDLRTPK | 50 to 75 |

Second part, the binder after the results:

| peptide exchange yield [%] | Binder |
| --- | --- |
| > 75 | RLASVGLDAK |
| 50 to 75 | SVEGLSRRLK |
| > 75 | RVRALGSQY |
| 10 to 20 | RAVSVNPGK |
| > 75 | RLLQHTPSAR |
| 50 to 75 | RVSGSGGGGAGK |
| > 75 | RTALLWGLKK |
| > 75 | RTYTCQVTY |
| > 75 | QLYSPPSPSYR |
| 20 to 50 | VSVAGSILAK |
| 50 to 75 | VIYVICRHK |
| 50 to 75 | TTNARILAR |
